Source: article PMC8319299

Experiments:
[1] = tested on: PRC2 core (EZH2-EED-SUZ12-RBBP4) (Homo sapiens), Q15910-2+O75530+Q15022+Q09028; assay: EMSA; conditions: 50 mM Tris-HCl pH 7.5 (25 C), 100 mM KCl, 2 mM 2-mercaptoethanol, 0.1 mg/mL BSA, 0.05% NP-40; FA at 30 C; nucleosome EMSA with 5% glycerol at 4 C (+5 ng/uL …)
[2] = tested on: PRC2-PALI1 PIR (Homo sapiens), Q15910-2+O75530+Q15022+Q09028+Q96JN0-3; assay: EMSA; conditions: 50 mM Tris-HCl pH 7.5 (25 C), 100 mM KCl, 2 mM 2-mercaptoethanol, 0.1 mg/mL BSA, 0.05% NP-40; FA at 30 C; nucleosome EMSA with 5% glycerol at 4 C (+5 ng/uL …)
[3] = tested on: PRC2-PALI1 PIR-long (Homo sapiens), Q15910-2+O75530+Q15022+Q09028+Q96JN0-3; assay: EMSA; conditions: 50 mM Tris-HCl pH 7.5 (25 C), 100 mM KCl, 2 mM 2-mercaptoethanol, 0.1 mg/mL BSA, 0.05% NP-40; FA at 30 C; nucleosome EMSA with 5% glycerol at 4 C (+5 ng/uL …)
[4] = target: EED (amino acids 40-441) (human) (UniProt O75530); assay: fluorescence polarisation; fluorescence anisotropy displacement titration: 2-fold serial dilutions of unlabelled peptide with 10 µM EED and 40 nM 5-FAM labelled JARID2-K116me3 peptide; same buffer, 30 °C; Kd of the unlabelled peptide from a fit
Chain of EED (amino acids 40-441) (human) (O75530 40-441): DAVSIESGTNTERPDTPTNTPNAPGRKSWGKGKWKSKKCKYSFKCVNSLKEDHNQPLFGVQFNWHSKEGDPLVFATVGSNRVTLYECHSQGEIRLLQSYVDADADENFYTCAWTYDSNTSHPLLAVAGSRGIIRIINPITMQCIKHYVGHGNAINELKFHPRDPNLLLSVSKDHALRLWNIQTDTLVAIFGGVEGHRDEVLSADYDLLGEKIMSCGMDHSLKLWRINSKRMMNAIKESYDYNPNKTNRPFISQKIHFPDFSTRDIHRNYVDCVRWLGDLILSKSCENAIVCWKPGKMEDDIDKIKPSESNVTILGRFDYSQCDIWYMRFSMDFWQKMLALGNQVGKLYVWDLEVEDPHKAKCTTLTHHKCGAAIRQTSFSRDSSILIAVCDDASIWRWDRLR

Chain of PRC2 core (EZH2-EED-SUZ12-RBBP4) (Homo sapiens), Q15910-2+O75530+Q15022+Q09028 (Q15910 other isoform, or with tags, fused parts or gaps, chain 1 of 4): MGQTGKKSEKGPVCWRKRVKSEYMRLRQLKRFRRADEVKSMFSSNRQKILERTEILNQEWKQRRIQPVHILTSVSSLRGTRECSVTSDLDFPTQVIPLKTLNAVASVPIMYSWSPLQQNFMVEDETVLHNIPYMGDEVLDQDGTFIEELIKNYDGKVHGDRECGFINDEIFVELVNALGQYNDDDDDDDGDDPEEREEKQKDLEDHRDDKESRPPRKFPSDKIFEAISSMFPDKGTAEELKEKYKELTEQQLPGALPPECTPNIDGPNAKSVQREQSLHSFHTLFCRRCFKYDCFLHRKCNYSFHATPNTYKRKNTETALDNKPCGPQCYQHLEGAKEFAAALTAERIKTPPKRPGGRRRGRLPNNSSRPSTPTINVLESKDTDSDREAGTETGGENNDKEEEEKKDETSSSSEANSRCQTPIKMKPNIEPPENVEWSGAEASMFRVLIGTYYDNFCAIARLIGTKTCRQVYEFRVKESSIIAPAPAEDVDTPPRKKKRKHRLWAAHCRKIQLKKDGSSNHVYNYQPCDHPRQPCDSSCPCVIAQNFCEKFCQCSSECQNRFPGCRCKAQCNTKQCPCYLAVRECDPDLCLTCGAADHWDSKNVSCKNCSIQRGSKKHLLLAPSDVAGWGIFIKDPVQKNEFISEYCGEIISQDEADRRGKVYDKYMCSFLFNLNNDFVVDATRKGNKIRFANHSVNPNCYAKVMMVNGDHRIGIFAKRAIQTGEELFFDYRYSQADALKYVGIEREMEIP
Chain of PRC2 core (EZH2-EED-SUZ12-RBBP4) (Homo sapiens), Q15910-2+O75530+Q15022+Q09028 (O75530 whole entry, chain 2 of 4): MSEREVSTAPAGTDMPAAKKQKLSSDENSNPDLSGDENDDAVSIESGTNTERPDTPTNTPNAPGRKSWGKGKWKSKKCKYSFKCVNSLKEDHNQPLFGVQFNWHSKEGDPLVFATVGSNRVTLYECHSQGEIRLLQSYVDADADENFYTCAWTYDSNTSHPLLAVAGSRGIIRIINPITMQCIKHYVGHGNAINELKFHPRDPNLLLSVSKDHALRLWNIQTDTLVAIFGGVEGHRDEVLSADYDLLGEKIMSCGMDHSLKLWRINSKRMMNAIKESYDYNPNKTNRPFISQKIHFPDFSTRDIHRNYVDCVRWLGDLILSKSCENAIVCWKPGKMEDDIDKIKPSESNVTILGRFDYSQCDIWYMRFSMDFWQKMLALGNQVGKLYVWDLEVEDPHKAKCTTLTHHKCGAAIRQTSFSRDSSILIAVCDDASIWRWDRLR
Chain of PRC2 core (EZH2-EED-SUZ12-RBBP4) (Homo sapiens), Q15910-2+O75530+Q15022+Q09028 (Q15022 whole entry, chain 3 of 4): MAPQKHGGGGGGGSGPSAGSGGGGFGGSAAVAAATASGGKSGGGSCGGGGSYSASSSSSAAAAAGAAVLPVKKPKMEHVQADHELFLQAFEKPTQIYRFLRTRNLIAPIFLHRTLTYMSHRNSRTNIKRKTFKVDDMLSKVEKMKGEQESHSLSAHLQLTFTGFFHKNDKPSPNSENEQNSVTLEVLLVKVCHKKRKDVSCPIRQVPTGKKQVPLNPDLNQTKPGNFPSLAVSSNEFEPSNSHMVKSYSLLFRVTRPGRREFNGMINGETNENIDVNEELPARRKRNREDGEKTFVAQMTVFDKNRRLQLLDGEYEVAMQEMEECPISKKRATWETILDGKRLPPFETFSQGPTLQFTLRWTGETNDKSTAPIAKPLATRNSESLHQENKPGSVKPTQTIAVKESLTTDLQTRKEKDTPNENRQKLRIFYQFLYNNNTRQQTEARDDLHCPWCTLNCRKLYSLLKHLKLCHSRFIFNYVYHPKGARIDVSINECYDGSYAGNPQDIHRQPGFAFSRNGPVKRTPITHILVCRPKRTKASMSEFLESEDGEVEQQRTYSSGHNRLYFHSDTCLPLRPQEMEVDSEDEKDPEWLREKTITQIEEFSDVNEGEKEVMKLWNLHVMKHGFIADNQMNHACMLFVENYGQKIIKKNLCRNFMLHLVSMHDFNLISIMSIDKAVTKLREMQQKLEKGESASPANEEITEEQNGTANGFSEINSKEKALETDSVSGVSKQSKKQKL
Chain of PRC2 core (EZH2-EED-SUZ12-RBBP4) (Homo sapiens), Q15910-2+O75530+Q15022+Q09028 (Q09028 whole entry, chain 4 of 4): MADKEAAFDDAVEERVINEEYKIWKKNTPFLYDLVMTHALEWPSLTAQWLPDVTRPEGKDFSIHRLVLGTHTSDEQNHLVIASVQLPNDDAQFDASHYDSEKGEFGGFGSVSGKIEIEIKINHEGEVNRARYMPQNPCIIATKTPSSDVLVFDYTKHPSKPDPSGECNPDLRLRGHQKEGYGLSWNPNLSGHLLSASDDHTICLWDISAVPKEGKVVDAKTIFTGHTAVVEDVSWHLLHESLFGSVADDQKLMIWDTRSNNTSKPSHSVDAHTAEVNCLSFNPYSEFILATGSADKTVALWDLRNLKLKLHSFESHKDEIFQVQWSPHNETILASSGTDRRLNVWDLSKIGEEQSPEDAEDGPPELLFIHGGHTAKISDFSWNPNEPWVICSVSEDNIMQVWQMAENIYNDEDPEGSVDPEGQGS

Substance	Kd [1] [nM]	Kd [2] [nM]	other results
ACCTCGCGAATGCATCTAGATGATATCGAGAATCCCGGTGCCGAGGCCGCTCAATTGGTCGTAGACAGCTCTAGCACCGCTTAAACGCACGTACGCGCTGTCCCCCGCGTTTTAACCGCCAAGGGGATTACTCCCTAGTCTCCAGGCACGTGTCAGATATATACATCCGATATCGGCGCCCT (double strand) [NCP182, H2A-Cy5]	1410	17.1	–
ACCTCGCGAATGCATCTAGATGATATCGAGAATCCCGGTGCCGAGGCCGCTCAATTGGTCGTAGACAGCTCTAGCACCGCTTAAACGCACGTACGCGCTGTCCCCCGCGTTTTAACCGCCAAGGGGATTACTCCCTAGTCTCCAGGCACGTGTCAGATATATACATCCGATATCGGCGCCCT (double strand) [mononucleosome 182 bp, Cy5-DNA]	330	–	Kd [3]: 19 nM
CTGGAGAATCCCGGTGCCGAGGCCGCTCAATTGGTCGTAGACAGCTCTAGCACCGCTTAAACGCACGTACGCGCTGTCCCCCGCGTTTTAACCGCCAAGGGGATTACTCCCTAGTCTCCAGGCACGTGTCAGATATATACATCCTGT (double strand) [NCP147, H2A-Cy5]	2560	48.5	–
PALI1-K1214me3 peptide	–	–	fold lower affinity than PALI1-K1219me3 and PALI1-K1241me3 [4]: 4 fold
PALI2-K1558me3 peptide	–	–	Kd [4]: 8810 nM
